Patent publication US20260226131A1 (SHANGHAI INSTITUTE OF MATERIA MEDICA CHINESE ACADEMY OF …, published 2026)
Positions count from the first letter of the chain named. In names and notes the source's numbering stands. Each block holds one molecule with its values, some of them ahead of it.

How the values were obtained:
[1] = biological target: IGF-1R-His tag (Sino Biological), human insulin-like growth factor 1 receptor (human) (UniProt P08069); assay: BLI (Octet), IGF-1R-His captured on Ni-NTA probe, 1:1 fit
[2] = biological target: T1, human insulin receptor extracellular domain protein (hIRB-ECD, Sino Biological Inc.) (human, UniProt P06213 28-956); assay: ELISA, coated hIRB-ECD, anti-human IgG HRP detection
T1 construct: extracellular domain; Bought protein coated on the ELISA plate

[3] = biological target: T2, IGF-1R-His tag (Sino Biological), human insulin-like growth factor 1 receptor (human, UniProt P08069 31-932, limits assumed); assay: BLI (Octet), IGF-1R-His captured on Ni-NTA probe, 1:1 fit
T2 construct: Bought recombinant protein captured on Ni-NTA probes; also called His-tagged IGF-1R protein; not shown: His tag

[4] = biological target: T3, human insulin receptor isoform B (hIRB), membranes of CHO cells overexpressing hIRB (human, UniProt P06213 28-1382); assay: competition with [125I]-insulin, CHO-hIRB membranes (SPA)
T3 construct: whole, on cells; The assay used cell membrane preparations

[5] = biological target: T4, human insulin receptor isoform A (hIRA), membranes of CHO cells overexpressing hIRA (human, UniProt P06213-2 28-1370); assay: competition with [125I]-insulin, CHO-hIRA membranes (SPA)
T4 construct: whole, on cells; The assay used cell membrane preparations

Kd [1]: 764 nM
koff [1]: 0.0192 s⁻¹
kon [1]: 25100 M⁻¹ s⁻¹
Molecule: glargine insulin (Lantus, Sanofi) (ligand)

EC50 [2]: 314 nM
B1: Insulin-Fc fusion protein of Example 8 (des B27-30+A3-A+A21G) (Fc fusion)
chain: FVNQHLCGSHLVEALYLVCGERGFFYGGVGGGGIAEQCCTSICSLYQLENYCGGGGGSGGGGSGGGGSGGGGSERKSSVESPPSPAPPVAGPSVFLFPPKPKDTLMISRTPEVTCVVVDVSQEDPEVQFNWYVDGVEVHNAKTKPREEQFNSTFRVVSVLTVLHQDWLNGKEYKCKVSNKGLPSSIEKTISKTKGQPREPQVYTLPPSREEMTKNQVSLTCLVKGFYPSDIAVEWESNGQPENNYKTTPPMLDSDGSFFLYSKLTVDKSRWQQGNVFSCSVMHEALHNHYTQKSLSLSLG

Kd [3]: 6490 nM
koff [3]: 0.00336 s⁻¹
kon [3]: 518 M⁻¹ s⁻¹
IC50 [4]: 509 nM
Maximum Receptor Binding Activity (%) Relative to RHI [4]: 74.3%
EC50 [2]: 160 nM
IC50 [5]: 102 nM
Maximum Receptor Binding Activity (%) Relative to RHI [5]: 78.7%
B2: Insulin-Fc fusion protein of Example 1 (B27E+A3-A+A21G) (Fc fusion)
chain: FVNQHLCGSHLVEALYLVCGERGFFYEPKTGGVGGGGIAEQCCTSICSLYQLENYCGGGGGSGGGGSGGGGSGGGGSERKSSVESPPSPAPPVAGPSVFLFPPKPKDTLMISRTPEVTCVVVDVSQEDPEVQFNWYVDGVEVHNAKTKPREEQFNSTFRVVSVLTVLHQDWLNGKEYKCKVSNKGLPSSIEKTISKTKGQPREPQVYTLPPSREEMTKNQVSLTCLVKGFYPSDIAVEWESNGQPENNYKTTPPMLDSDGSFFLYSKLTVDKSRWQQGNVFSCSVMHEALHNHYTQKSLSLSLG

EC50 [2]: 445 nM
B3: Insulin-Fc fusion protein of Example 6 (B16-A+A3-A+A21G) (Fc fusion)
chain: B2 chain with Y16A, E27T

EC50 [2]: 699 nM
B4: Insulin-Fc fusion protein of Example 7 (B25-T+B27-E A3-A+A21G) (Fc fusion)
chain: B2 chain with F25T

EC50 [2]: 160 nM
B5: Insulin-Fc fusion protein of Example 5 (B5-A+A21G) (Fc fusion)
chain: B2 chain with H5A, E27T, A39V
